These results are taken from patent publication US20150376286A1 (Amgen, published 2015).

One may read the Ki as a measure of affinity in units of concentration, obtained from inhibition or displacement. As usually defined, the Kd is the constant that tells how readily two partners part at equilibrium.

Assay [1] has as its target T1, human CGRP receptor (CRLR + RAMP1) (human, UniProt Q16602 23-461; O60894 27-148). Put plainly: cell-based or functional assay.
Assay [2] deals with human amylin AMY1 receptor (hCTR + hRAMP1) (human, UniProt P30988 25-474). As to the kind of experiment: cell-based or functional assay.
Assay [3] concerns the target human adrenomedullin receptor 2 (hCRLR + hRAMP3) (human, UniProt O60896 24-148). As to the kind of experiment: cell-based or functional assay.
Assay [4] addresses T2, cynomolgus CGRP receptor (cynoCRLR + cynoRAMP1) (cynomolgus monkey).
T2 chain 1: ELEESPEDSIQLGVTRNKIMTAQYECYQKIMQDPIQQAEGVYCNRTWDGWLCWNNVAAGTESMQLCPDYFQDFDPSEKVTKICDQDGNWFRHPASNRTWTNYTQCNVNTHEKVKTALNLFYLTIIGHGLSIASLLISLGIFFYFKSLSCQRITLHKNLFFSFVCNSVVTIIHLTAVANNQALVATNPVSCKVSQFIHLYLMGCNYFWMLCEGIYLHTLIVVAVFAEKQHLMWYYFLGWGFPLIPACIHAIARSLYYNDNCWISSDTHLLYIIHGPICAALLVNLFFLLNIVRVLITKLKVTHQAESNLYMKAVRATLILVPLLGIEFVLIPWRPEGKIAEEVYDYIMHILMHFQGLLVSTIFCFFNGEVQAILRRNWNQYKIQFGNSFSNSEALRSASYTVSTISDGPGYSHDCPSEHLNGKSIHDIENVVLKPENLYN
T2 chain 2: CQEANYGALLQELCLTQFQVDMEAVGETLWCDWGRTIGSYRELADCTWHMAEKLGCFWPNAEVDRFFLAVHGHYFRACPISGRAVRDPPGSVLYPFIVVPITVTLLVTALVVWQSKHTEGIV
As to the kind of experiment: cell-based or functional assay.

Assay [5] has as its target human adrenomedullin receptor 1 (hCRLR + hRAMP2) (human, UniProt O60895 43-175). As to the kind of experiment: cell-based or functional assay.
For the next assay, the target named is rat CGRP receptor (rat, UniProt Q63118 24-464; Q9JJ74 27-148). Put plainly: cell-based or functional assay.
The target in assay [6] is T1, human CGRP receptor (CRLR + RAMP1). Put plainly: 125I-CGRP competition binding, HTB-10 cell membranes. The protocol: (§1) The plates were incubated at room temperature for 2 hours with shaking at 60 rpm, and then the contents of each well were filtered over 0.5% polyethyleneimine (PEI)-treated (for at least one hour) GF/C 96-well filter plates. The GF/C filter plates were washed six times with ice-cold 50 mM Tris, pH 7.5 and dried in an oven at 55° C. for 1 hour. The bottoms of the GF/C plates were then sealed. 40 μl Microscint™ 20 was added to each well, the tops of the GF/C plates were sealed with TopSeal™-A (a press-on adhesive sealing film), and the GF/C plates were counted with TopCount NXT (Packard). The data were analyzed using Prizm (GraphPad Software Inc.)

Assay [7] shares this target. Put plainly: cell-based or functional assay. This is another data set of the same source.
Assay [8] shares this target. As to the kind of experiment: radioligand competition: 125I-CGRP binding to human CGRP receptor on HTB-10 cell membranes, antibody as competitor. The procedure:
as §1

The target is the same in assay [9]. Put plainly: FACS on AM-1 CHO huCGRP R cells, KinExA n-curve analysis. The protocol: Briefly, AM-1 CHO huCGRP R-expressing cells, prepared as described above, were plated in 96-well plates at densities of 16,000 or 160,000 cells per well in DMEM medium containing 10% FBS, NEAA, PS, L Glut, NaPyr and 0.05% sodium azide. […] After an overnight incubation at 4° C. in a total volume of 120 μl, on a plate shaker, the cells were washed 2× with PBS+2% FBS, centrifuging and discarding supernatant each time. 100 μl/well of G anti-Hu Fc Cy5 (5 μg/mL; Jackson ImmunoResearch Laboratories Inc., West Grove, Pa., USA) containing 7AAD (5 μl/well) was then added and incubated at 4° C. for 40 min. The cells were washed 2× with PBS+2% FBS, centrifuging and discarding the supernatant each time. 100 μl PBS+2% FBS buffer was then added and analyzed by FACS to determined the binding geomean. The Kd was calculated using KinExA software by taking the negative geomean at each antibody concentration as the amount of free Ab present Rathanaswami, et al., Biochemical and Biophysical Research Communications 334 (2005) 1004-1013.

A value given as a limit tells only on which side of the number the result lay.

B1: 1E11 (antibody, human IgG2, lambda, V domains shown)
VH: QVQLVESGGGVVQPGRSLRLSCAASGFTFSSFGMHWVRQAPGKGLEWVAVISFDGSIKYSVDSVKGRFTISRDNSKNTLFLQMNSLRAEDTAVYYCARDRLNYYDSSGYYHYKYYGMAVWGQGTTVTVSS
VL: QSVLTQPPSVSEAPGQKVTISCSGSSSNIGNNYVSWYQQLPGTAPKLLIYDNNKRPSGIPDRFSGSKSGTSATLGITGLQTGDEADYYCGTWDSRLSAVVFGGGTKLTVLG
notes: also called 01E11; 01E11.2
Regarding B1, the “cAMP assay IC50” value in [1] was 1.77 nM; in assay [2] it was > 1000 nM; in [3] it was > 1000 nM; in [4], 2.79 nM; in assay [5], > 1000 nM; with rat CGRP receptor, > 1000 nM. Moreover, in [6], the Ki was 0.03 nM. In addition, the results for the “IC50 (read off the curve)” value in assay [7] and in assay [8] were ~1 nM and ~0.03 nM, respectively.

B2: 9D4 (antibody, human IgG2, lambda, V domains shown)
VH: QVQLVESGGGVVQPGRSLRLSCAASGFTFSSFGMHWVRQAPGKGLEWVAVISFDGSIKYSVDSVKGRFTISRDNSKNTLFLQMNSLRAEDTAVYYCARDRLNYYDSSGYYHYKYYGMAVWGQGTTVTVSS
VL: QSVLTQPPSVSAAPGQKVTISCSGSSSNIGNNYVSWYQQFPGTAPKLLIYDNNKRPSGIPDRFSGSKSGTSATLGITGLQTGDEADYYCGTWDSRLSAVVFGGGTKLTVLG
notes: also called 09D4; 09D4.2
B2: the “cAMP assay IC50” value was 1.4 nM in [1]; > 1000 nM in assay [2]; > 1000 nM in assay [3]; 2.46 nM in assay [4]; > 1000 nM in assay [5]; > 1000 nM in the assay with rat CGRP receptor. Further, the Kd in assay [9] was determined as 2.5 nM. In addition, in assay [6], the Ki came out at 0.023 nM.

B3: 4H6 (antibody, human IgG2, kappa, V domains shown)
VH: EVQLVESGGGLVKPGRSLRLSCTASGFTFGDYAMSWFRQAPGKGLEWIGFIRSRAYGGTPEYAASVKGRFTISRDDSKTIAYLQMNSLKTEDTAVYFCARGRGIAARWDYWGQGTLVTVSS
VL: not shown
notes: also called 04H6; 04H6.1
B3: the “cAMP assay IC50” value in assay [1] is 3.78 nM; in assay [2], > 1000 nM; in assay [3] it was > 1000 nM; in assay [4], 5.59 nM; in [5], > 1000 nM; with rat CGRP receptor, > 1000 nM. The Kd in assay [9] stood at 2.4 nM. Further, the inhibition constant (Ki) in assay [6] was 0.052 nM.

B4: 13H2 (antibody, human IgG2, kappa, V domains shown)
VH: EVQLVESGGGLVKPGGSLRLSCAASGYTFSTYSMNWVRQAPGKGLEWVSSISSSSSYRYYADSVKGRFTISRDNAKNSLYLQMSSLRAEDTAVYYCAREGVSGSSPYSISWYDYYYGMDVWGQGTTVTVSS
VL: DIQMTQSPSSLSASVGDRVTITCRASQGIRKDLGWYQQKPGKAPKRLIYGASSLQSGVPSRFSGSGSGTEFTLTISSLQPEDFATYYCLQYNSFPWTFGQGTKVEIKR
notes: also called 13H2.2
As for B4, the “cAMP assay IC50” value in [1] was 1.95 nM; in [2], > 1000 nM; in assay [3], > 1000 nM; in [4] it was 8.41 nM; in assay [5] it was > 1000 nM; with rat CGRP receptor it was > 1000 nM. Moreover, in assay [6], the Ki is 0.033 nM. For the same molecule, the “IC50 (read off the curve)” value in assay [7] is ~6 nM; in assay [8], ~0.1 nM.

B5: 2E7 (antibody, human IgG2, kappa, V domains shown)
VH: EVQLLESGGGLVQPGESLRLSCAASGFTFSSYAMSWVRQAPGKGLEWVSAISGSGGRTYYADSVKGRFTISRDNSKNTLYLQMNSLRAEDTAVYYCAKDQREVGPYSSGWYDYYYGMDVWGQGTTVTVSS
VL: DIQMTQSPSSLSASVGDRVTITCRASQGIRNDLGWFQQKPGKAPKRLIYAASSLQSGVPSRFSGSGSGTEFTLTISSLQPEDLATYYCLQYNIYPWTFGQGTKVEIKR
notes: also called 02E7; 02E7.2
On to B5, for which the “cAMP assay IC50” value in assay [1] is 6.3 nM; in [2], > 1000 nM; in assay [3], > 1000 nM; in assay [4], 5.51 nM; in assay [5] it was > 1000 nM; with rat CGRP receptor it was > 1000 nM. In addition, the Kd in assay [9] was 1.5 nM. Also, the inhibitory constant (Ki) in assay [6] worked out at 0.117 nM.

B6: 10E4 (antibody, human IgG2, lambda, V domains shown)
VH: QVQLVQSGAEVKKPGASVKVSCKASGYTFTDYYMYWVRQAPGQGLEWMGWISPNSGGTNYAQKFQGRVTMTRDTSISTAYMELSRLRSDDTAVYYCVRGGYSGYAGLYSHYYGMDVWGQGTTVTVSS
VL: not shown
In the case of B6, the “cAMP assay IC50” value was > 1000 nM in assay [2]; > 1000 nM in [3]; 3.23 nM in [4]; > 1000 nM in assay [5]; > 1000 nM with rat CGRP receptor.

B7: 5F5 (antibody, human IgG2, kappa, V domains shown)
VH: QVQLVESGGGVVQPGRSLRLSCAASGFTFSSYGMHWVRQAPGKGLEWVAVISYDGSHESYADSVKGRFTISRDISKNTLYLQMNSLRAEDTAVYFCARERKRVTMSTLYYYFYYGMDVWGQGTTVTVSS
VL: DIILTQTPLSLSVTPGQPASISCKSSQSLLHSDGKTYLYWYLQKPGQPPQLLIYEVSNRFSGEPDRFSGSGSGTDFTLKISRVEAEDVGTYYCMQSFPLPLTFGGGTKVEIKR
notes: also called 05F5; 05F5.1
Take B7: the “cAMP assay IC50” value is 4.79 nM in assay [1]; > 1000 nM in [2]; > 1000 nM in assay [3]; 4.78 nM in [4]; > 1000 nM in [5]; > 1000 nM with rat CGRP receptor. Further, in assay [6], the Ki was found to be 0.147 nM.

B8: 12E8 (antibody, human IgG2, kappa, V domains shown)
VH: QVQLVESGGGVVQPGRSLRLSCAASGFTFSSYGMHWVRQAPGKGLEWVAVISYDGSHESYADSVKGRFTISRDISKNTLYLQMNSLRAEDTAVYFCARERKRVTMSTLYYYFYYGMDVWGQGTTVTVSS
VL: DITLTQTPLSLSVSPGQPASISCKSSQSLLHSDGRNYLYWYLQKPGQPPQLLIYEVSNRFSGLPDRFSGSGSGTDFTLKISRVEAEDVGIYYCMQSFPLPLTFGGGTKVEIKR
notes: also called 12E8.2
For the molecule B8, the “cAMP assay IC50” value in [1] is 2.93 nM; in assay [2] it was > 1000 nM; in assay [3], > 1000 nM; in [4], 4.13 nM; in assay [5], > 1000 nM; in the assay with rat CGRP receptor it was > 1000 nM. Also, the Kd in assay [9] worked out at 2.3 nM. The Ki in [6] was determined as 0.097 nM.

B9: 3C8 (antibody, human IgG2, kappa, V domains shown)
VH: QVQLVESGGGVVQPGRSLRLSCAASGFTFSSYGMHWVRQAPGKGLEWVAVISYDGSHESYADSVKGRFTISRDISKNTLYLQMNSLRAEDTAVYFCARERKRVTMSTLYYYFYYGMDVWGQGTTVTVSS
VL: DIILAQTPLSLSVTPGQPASISCKSSQSLLHSAGKTYLYWYLQKPGQPPQLLIYEVSNRFSGVPDRFSGSGSGTDFTLKISRVEAEDVGIYYCMQSFPLPLTFGGGTKVEIKR
Take B9: the “cAMP assay IC50” value was > 1000 nM in assay [2]; > 1000 nM in assay [3]; 5.32 nM in assay [4]; > 1000 nM in assay [5]; > 1000 nM with rat CGRP receptor.
